# Reference: publication PMC9352680, “A comprehensive thermodynamic model for RNA binding by the Saccharomyces cerevisiae Pumilio protein PUF4”
# T1: PUF4 RNA-binding domain (Saccharomyces cerevisiae, UniProt P25339 537-888)
# T1 sequence: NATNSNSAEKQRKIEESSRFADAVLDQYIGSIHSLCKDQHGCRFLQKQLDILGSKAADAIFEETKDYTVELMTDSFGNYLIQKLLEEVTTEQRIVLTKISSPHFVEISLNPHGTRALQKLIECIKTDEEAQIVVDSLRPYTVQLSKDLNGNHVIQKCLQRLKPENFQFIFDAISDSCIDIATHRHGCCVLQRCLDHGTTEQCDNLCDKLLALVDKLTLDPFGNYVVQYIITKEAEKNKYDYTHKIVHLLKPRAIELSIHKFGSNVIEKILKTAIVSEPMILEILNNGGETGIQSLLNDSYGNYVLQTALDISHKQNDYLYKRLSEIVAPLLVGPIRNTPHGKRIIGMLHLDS
# Biological target: T1, PUF4 RNA-binding domain
# Assay: Mg; RNA-MaP; 20 mM Na-HEPES pH 7.4, 30 mM KOAc, 0.75 mM MgCl2, 0.1% Tween-20, 5% glycerol, 0.1 mg/mL BSA, 2 mM DTT; 25 C; 0.0125-409.6 nM protein
# Settings: tags: N-His6-TEV cleaved; C-SNAP kept, Cy3B-labelled; label: tethered on chip by stalled RNA polymerase
row,Binder,Kd [nM]
1,UCUCUUUGUACAAUUUCUCUU (ssRNA) [Ic_S1_P4E.1_K4.1_C4.1_H4.1_A4.1_[T5C]_[T7A]_F4.1_[A9T]_T4.1],11.2
2,UCUCUUUGUAACCUGUCUCUU (ssRNA) [Ic_S1_P4E.1_K4.1_C4.1_H4.1_A4.1_[T5A]_[A6C]_[T7C]_F4.1_[A9G]_T4.1],61
3,UCUCUUUGUAACAAAUCUCUU (ssRNA) [Ic_S1_P4E.1_K4.1_C4.1_H4.1_A4.1_[T5A]_[A6C]_[T7A]_F4.1_[T8A]_T4.1],111
4,UCUCUUUGUAACUGAUCUCUU (ssRNA) [Ic_S1_P4E.1_K4.1_C4.1_H4.1_A4.1_[T5A]_[A6C]_F4.1_[T8G]_T4.1],674
5,UCUCUUUGUAACAUAUCUCUU (ssRNA) [Ic_S1_P4E.1_K4.1_C4.1_H4.1_A4.1_[T5A]_[A6C]_[T7A]_F4.1_T4.1],1.55
6,UCUCUUUGUAACGCCUCUCUU (ssRNA) [Ic_S1_P4E.1_K4.1_C4.1_H4.1_A4.1_[T5A]_[A6C]_[T7G]_F4.1_[T8C]_[A9C]_T4.1],2000
7,UCUCUUUGUAACUCAUCUCUU (ssRNA) [Ic_S1_P4E.1_K4.1_C4.1_H4.1_A4.1_[T5A]_[A6C]_F4.1_[T8C]_T4.1],374
8,UCUCUUUGCAUAUCUCUCUU (ssRNA) [Ib_S1_P3E.1_K3.1_C3.1_H3.1_[T3C]_A3.1_F3.1_[A8C]_T3.1],> 2300
9,UCUCUUUGUAAGCCAUCUCUU (ssRNA) [Ic_S1_P4E.1_K4.1_C4.1_H4.1_A4.1_[T5A]_[A6G]_[T7C]_F4.1_[T8C]_T4.1],515
10,UCUCUUUGUAAGCUCUCUCUU (ssRNA) [Ic_S1_P4E.1_K4.1_C4.1_H4.1_A4.1_[T5A]_[A6G]_[T7C]_F4.1_[A9C]_T4.1],1840
11,UCUCUUUGUAACGCGUCUCUU (ssRNA) [Ic_S1_P4E.1_K4.1_C4.1_H4.1_A4.1_[T5A]_[A6C]_[T7G]_F4.1_[T8C]_[A9G]_T4.1],> 2300
12,UCUCUUUGCAUAUGUCUCUU (ssRNA) [Ib_S1_P3E.1_K3.1_C3.1_H3.1_[T3C]_A3.1_F3.1_[A8G]_T3.1],> 2300
13,UCUCUUUGUACAUGUUCUCUU (ssRNA) [Ic_S1_P4E.1_K4.1_C4.1_H4.1_A4.1_[T5C]_F4.1_[T8G]_[A9T]_T4.1],20.9
14,UCUCUUUGUGUAUGUCUCUU (ssRNA) [Ib_S1_P3E.1_K3.1_C3.1_H3.1_[A4G]_A3.1_F3.1_[A8G]_T3.1],494
15,UCUCUUUGUAACUAUUCUCUU (ssRNA) [Ic_S1_P4E.1_K4.1_C4.1_H4.1_A4.1_[T5A]_[A6C]_F4.1_[T8A]_[A9T]_T4.1],93.1
16,UCUCUUUGUAACUAGUCUCUU (ssRNA) [Ic_S1_P4E.1_K4.1_C4.1_H4.1_A4.1_[T5A]_[A6C]_F4.1_[T8A]_[A9G]_T4.1],104
17,UCUCUUUGUAACGUUUCUCUU (ssRNA) [Ic_S1_P4E.1_K4.1_C4.1_H4.1_A4.1_[T5A]_[A6C]_[T7G]_F4.1_[A9T]_T4.1],314
18,UCUCUUUGUAACGCUUCUCUU (ssRNA) [Ic_S1_P4E.1_K4.1_C4.1_H4.1_A4.1_[T5A]_[A6C]_[T7G]_F4.1_[T8C]_[A9T]_T4.1],581
19,UCUCUUUGUAACCCUUCUCUU (ssRNA) [Ic_S1_P4E.1_K4.1_C4.1_H4.1_A4.1_[T5A]_[A6C]_[T7C]_F4.1_[T8C]_[A9T]_T4.1],727
20,UCUCUUUGUACAAUCUCUCUU (ssRNA) [Ic_S1_P4E.1_K4.1_C4.1_H4.1_A4.1_[T5C]_[T7A]_F4.1_[A9C]_T4.1],16.7

row,Binder,Kd [nM]
1,UCUCUUUGUACAUGGUCUCUU (ssRNA) [Ic_S1_P4E.1_K4.1_C4.1_H4.1_A4.1_[T5C]_F4.1_[T8G]_[A9G]_T4.1],59.6
2,UCUCUUUGUAACCGAUCUCUU (ssRNA) [Ic_S1_P4E.1_K4.1_C4.1_H4.1_A4.1_[T5A]_[A6C]_[T7C]_F4.1_[T8G]_T4.1],> 2300
3,UCUCUUUGUACAUCCUCUCUU (ssRNA) [Ic_S1_P4E.1_K4.1_C4.1_H4.1_A4.1_[T5C]_F4.1_[T8C]_[A9C]_T4.1],29.5
4,UCUCUUUGUAAGCUAUCUCUU (ssRNA) [Ic_S1_P4E.1_K4.1_C4.1_H4.1_A4.1_[T5A]_[A6G]_[T7C]_F4.1_T4.1],26.5
5,UCUCUUUGUACAAACUCUCUU (ssRNA) [Ic_S1_P4E.1_K4.1_C4.1_H4.1_A4.1_[T5C]_[T7A]_F4.1_[T8A]_[A9C]_T4.1],142
6,UCUCUUUGUAACCCCUCUCUU (ssRNA) [Ic_S1_P4E.1_K4.1_C4.1_H4.1_A4.1_[T5A]_[A6C]_[T7C]_F4.1_[T8C]_[A9C]_T4.1],1700
7,UCUCUUUGUAACAUCUCUCUU (ssRNA) [Ic_S1_P4E.1_K4.1_C4.1_H4.1_A4.1_[T5A]_[A6C]_[T7A]_F4.1_[A9C]_T4.1],24.5
8,UCUCUUUGUAACUGCUCUCUU (ssRNA) [Ic_S1_P4E.1_K4.1_C4.1_H4.1_A4.1_[T5A]_[A6C]_F4.1_[T8G]_[A9C]_T4.1],704
9,UCUCUUUGUAAGCACUCUCUU (ssRNA) [Ic_S1_P4E.1_K4.1_C4.1_H4.1_A4.1_[T5A]_[A6G]_[T7C]_F4.1_[T8A]_[A9C]_T4.1],1880
10,UCUCUUUGUAACAAUUCUCUU (ssRNA) [Ic_S1_P4E.1_K4.1_C4.1_H4.1_A4.1_[T5A]_[A6C]_[T7A]_F4.1_[T8A]_[A9T]_T4.1],102
11,UCUCUUUGUAACCAUUCUCUU (ssRNA) [Ic_S1_P4E.1_K4.1_C4.1_H4.1_A4.1_[T5A]_[A6C]_[T7C]_F4.1_[T8A]_[A9T]_T4.1],548
12,UCUCUUUGUAACGAUUCUCUU (ssRNA) [Ic_S1_P4E.1_K4.1_C4.1_H4.1_A4.1_[T5A]_[A6C]_[T7G]_F4.1_[T8A]_[A9T]_T4.1],884
13,UCUCUUUGUAACCAAUCUCUU (ssRNA) [Ic_S1_P4E.1_K4.1_C4.1_H4.1_A4.1_[T5A]_[A6C]_[T7C]_F4.1_[T8A]_T4.1],863
14,UCUCUUUGUAACCUCUCUCUU (ssRNA) [Ic_S1_P4E.1_K4.1_C4.1_H4.1_A4.1_[T5A]_[A6C]_[T7C]_F4.1_[A9C]_T4.1],90
15,UCUCUUUGUAACUGGUCUCUU (ssRNA) [Ic_S1_P4E.1_K4.1_C4.1_H4.1_A4.1_[T5A]_[A6C]_F4.1_[T8G]_[A9G]_T4.1],937
16,UCUCUUUGUAACAGCUCUCUU (ssRNA) [Ic_S1_P4E.1_K4.1_C4.1_H4.1_A4.1_[T5A]_[A6C]_[T7A]_F4.1_[T8G]_[A9C]_T4.1],1150
17,UCUCUUUGUAACAUUUCUCUU (ssRNA) [Ic_S1_P4E.1_K4.1_C4.1_H4.1_A4.1_[T5A]_[A6C]_[T7A]_F4.1_[A9T]_T4.1],13.9
18,UCUCUUUGUACAAAAUCUCUU (ssRNA) [Ic_S1_P4E.1_K4.1_C4.1_H4.1_A4.1_[T5C]_[T7A]_F4.1_[T8A]_T4.1],34.1
19,UCUCUUUGUACAUCUUCUCUU (ssRNA) [Ic_S1_P4E.1_K4.1_C4.1_H4.1_A4.1_[T5C]_F4.1_[T8C]_[A9T]_T4.1],21.1
20,UCUCUUUGUACAAUGUCUCUU (ssRNA) [Ic_S1_P4E.1_K4.1_C4.1_H4.1_A4.1_[T5C]_[T7A]_F4.1_[A9G]_T4.1],7.97

row,Binder,Kd [nM]
1,UCUCUUUGUACAUGCUCUCUU (ssRNA) [Ic_S1_P4E.1_K4.1_C4.1_H4.1_A4.1_[T5C]_F4.1_[T8G]_[A9C]_T4.1],28.6
2,UCUCUUUCUAUAUUUCUCUU (ssRNA) [Ib_S1_P3E.1_K3.1_C3.1_H3.1_[G2C]_A3.1_F3.1_[A8T]_T3.1],> 2300
3,UCUCUUUGUAACUACUCUCUU (ssRNA) [Ic_S1_P4E.1_K4.1_C4.1_H4.1_A4.1_[T5A]_[A6C]_F4.1_[T8A]_[A9C]_T4.1],422
4,UCUCUUUGUAACGUCUCUCUU (ssRNA) [Ic_S1_P4E.1_K4.1_C4.1_H4.1_A4.1_[T5A]_[A6C]_[T7G]_F4.1_[A9C]_T4.1],789
5,UCUCUUUGUAACCAGUCUCUU (ssRNA) [Ic_S1_P4E.1_K4.1_C4.1_H4.1_A4.1_[T5A]_[A6C]_[T7C]_F4.1_[T8A]_[A9G]_T4.1],> 2300
6,UCUCUUUGUAACAGUUCUCUU (ssRNA) [Ic_S1_P4E.1_K4.1_C4.1_H4.1_A4.1_[T5A]_[A6C]_[T7A]_F4.1_[T8G]_[A9T]_T4.1],362
7,UCUCUUUGUAACGUAUCUCUU (ssRNA) [Ic_S1_P4E.1_K4.1_C4.1_H4.1_A4.1_[T5A]_[A6C]_[T7G]_F4.1_T4.1],17.3
8,UCUCUUUGUAACAAGUCUCUU (ssRNA) [Ic_S1_P4E.1_K4.1_C4.1_H4.1_A4.1_[T5A]_[A6C]_[T7A]_F4.1_[T8A]_[A9G]_T4.1],1670
9,UCUCUUUGUAAGCUGUCUCUU (ssRNA) [Ic_S1_P4E.1_K4.1_C4.1_H4.1_A4.1_[T5A]_[A6G]_[T7C]_F4.1_[A9G]_T4.1],544
10,UCUCUUUGUACAAAUUCUCUU (ssRNA) [Ic_S1_P4E.1_K4.1_C4.1_H4.1_A4.1_[T5C]_[T7A]_F4.1_[T8A]_[A9T]_T4.1],125
11,UCUCUUUAUAUAUUUCUCUU (ssRNA) [Ib_S1_P3E.1_K3.1_C3.1_H3.1_[G2A]_A3.1_F3.1_[A8T]_T3.1],696
12,UCUCUUUGUAACAUGUCUCUU (ssRNA) [Ic_S1_P4E.1_K4.1_C4.1_H4.1_A4.1_[T5A]_[A6C]_[T7A]_F4.1_[A9G]_T4.1],12
13,UCUCUUUGUAAGCCCUCUCUU (ssRNA) [Ic_S1_P4E.1_K4.1_C4.1_H4.1_A4.1_[T5A]_[A6G]_[T7C]_F4.1_[T8C]_[A9C]_T4.1],2290
14,UCUCUUUGUAACGUGUCUCUU (ssRNA) [Ic_S1_P4E.1_K4.1_C4.1_H4.1_A4.1_[T5A]_[A6C]_[T7G]_F4.1_[A9G]_T4.1],758
15,UCUCUUUGUAACACAUCUCUU (ssRNA) [Ic_S1_P4E.1_K4.1_C4.1_H4.1_A4.1_[T5A]_[A6C]_[T7A]_F4.1_[T8C]_T4.1],209
16,UCUCUUUGUAACUCGUCUCUU (ssRNA) [Ic_S1_P4E.1_K4.1_C4.1_H4.1_A4.1_[T5A]_[A6C]_F4.1_[T8C]_[A9G]_T4.1],726
17,UCUCUUUGUAACAACUCUCUU (ssRNA) [Ic_S1_P4E.1_K4.1_C4.1_H4.1_A4.1_[T5A]_[A6C]_[T7A]_F4.1_[T8A]_[A9C]_T4.1],580
18,UCUCUUUGUACAUAGUCUCUU (ssRNA) [Ic_S1_P4E.1_K4.1_C4.1_H4.1_A4.1_[T5C]_F4.1_[T8A]_[A9G]_T4.1],5.5
19,UCUCUUUGUAACUGUUCUCUU (ssRNA) [Ic_S1_P4E.1_K4.1_C4.1_H4.1_A4.1_[T5A]_[A6C]_F4.1_[T8G]_[A9T]_T4.1],360
